Source: US20230121197A1, “ANTIBODIES SPECIFICALLY BINDING THE CARBOXYMETHYLATED CATALYTIC SUBUNIT OF PROTEIN PHOSPHATASE 2A” (Medizinische Universität Wien, priority 2020, published 2023)

Experiments:
[1] = target: T1, PP6c C-terminal peptide meL305, ac-IPPRTTTPYFL-CH3 (α-carboxymethylated) (human, SMILES …); assay: ELISA, peptide coated at 2 µg/ml, hybridoma supernatant 1:50, values normalized to meL309, N=7
T1 construct: also called PP6 meLeu305
T1 peptide: Ac-IPPRTTTPYFL-OMe
Source text: (§1) FIG. 9: Monoclonal antibody 7C10-C5 detects α-carboxymethylated PP2Ac C-terminal peptides with >10-fold higher signal intensity than the α-carboxymethylated PP4c and PP6c C-terminal peptides in ELISA. Nunc Medisorp 96-well ELISA flat-bottom plates were coated with PP2Ac peptides L309 (ac-[…]) (SEQ ID NO:18), meL309 (ac-[…]-CH3) (SEQ ID NO:18), PP4c peptides L307 (ac-[…]) (SEQ ID NO:20), meL307 (ac-[…]-CH₃) (SEQ ID NO:20), PP6c peptides L305 (ac-[…]) (SEQ ID NO:22) or meL305 (ac-[…]-CH₃) (SEQ ID NO:22) at 2 μg/ml in TBS or TBS only (Neg) at 4° C. over-night. After washing once with TBS, the wells were incubated with 2% BSA in TBS for 1 h at RT. After washing once with TBS, the wells were incubated with single clone hybridoma cell culture supernatant, clone 7C10-C5 1:50 for 1 h at RT. After washing twice with TBS, wells were incubated with anti-mouse and anti rabbit HRP-coupled secondary antibody for 1 h at RT, followed by washing 3× in PBS. Bound antibodies were detected by colorimetric reaction with 3,3′,5,5′-Tetramethylbenzidine as substrate, and absorbance was measured at 450 nm. Values were normalized to meL309 which was set to 1. Average and standard deviation of N=7 experiments are shown. […] Statistical significance was assessed using ANOVA followed by Tukey's HSD as a post-hoc test. […]

[2] = target: T2, PP4c C-terminal peptide meL307, ac-PSKKPVADYFL-CH3 (α-carboxymethylated) (human, SMILES …); assay: as above
T2 construct: also called mePP4c; PP4 Me
T2 peptide: Ac-PSKKPVADYFL-OMe
Source text: as §1

[3] = target: T3, carboxymethylated PP4c C-terminal peptide (ac-[…]-CH3) (Homo sapiens, UniProt P60510); assay: Surface plasmon resonance (Biacore T200), steady state analysis, carboxymethylated PP4c peptide; assay type: binding; conditions: PP4 Me peptide, 360 sec contact time, 40 μL/min
T3 construct: The following 11-mer peptides corresponding to the carboxymethylated or non-methylated carboxy-terminus of PP2A and PP4 catalytic subunits were used as antigens
Protocol: The differential affinity of anti-carboxymethylated PP2Ac antibodies, 7C10-C5 and 2A10, to carboxymethylated PP2A catalytic subunit versus noncarboxymethylated PP2A catalytic subunit was determined by surface plasmon resonance (SPR) on a Biacore T200 (GE Healthcare) at the Core Facility Biomolecular & Cellular Analysis (University of Natural Resources and Life Sciences Vienna BOKU). The affinity of 7C10-C5 for carboxymethylated and noncarboxymethylated catalytic subunit of PP4 (PP4c), a PP2A-related phosphatase, was also determined. […] The KD of the binding of 7C10-C5 (or 2A10) to non-carboxymethylated PP2Ac or PP4c could not be determined because at the highest analyte sample concentration (5000 nM) only very weak binding signals were detected indicating KD values of at least >5000 nM or higher. […]
SPR experiments were performed with the BiacoreT200 instrument (Cytiva). […] The sensorgrams obtained were analyzed with BiacoreT200 Evaluation Software (version 3.1). […]

| Molecule | fold-change of ELISA signal, meL309 (PP2A) over meL305 (PP6) [1] [fold] | fold-change of ELISA signal, meL309 (PP2A) over meL307 (PP4) [2] [fold] | Rmax [3] [RU] |
| --- | --- | --- | --- |
| 7C10-C5 monoclonal antibody (antibody, V domains shown, Used as hybridoma culture supernatant (ELISA, Western blot, IHC) or at 50 µg/mL (SPR); also called 7C10 X63; clone 7C10-C5) VH: DVQLQESGPGLVKPSQSLSLTCSVTGYSITSGYYWNWIRQFPGNKLEWMGYISYDGSNNYNPSLKNRISITRDTSKNQFFLKLNSVTTEDTATYYCAGRFAYWGQGTLVTVSA VL: DVLMTQTPLSLPVSLGDQASISCRSSQSIVHSNGNTYLEWYLQKPGQSPKLLIYKVSNRFSGVPDRFSGSGSGTDFTLKINRVEAEDLGVYYCFQGSHVPWTFGGGTKLEIK | 16.2 | 10.1 |  |
| 7C10-C5: α-carboxymethylation specific mouse monoclonal IgG1 antibody from single clone hybridoma 7C10-C5 (DSM ACC3350) (antibody, Amino acid sequence of the recombinant 7C10-C5 heavy chain; Amino acid sequence of the recombinant 7C10-C5 light chain) heavy: MYRMQLLSCIALSLALVTNSDVQLQESGPGLVKPSQSLSLTCSVTGYSITSGYYWNWIRQFPGNKLEWMGYISYDGSNNYNPSLKNRISITRDTSKNQFFLKLNSVTTEDTATYYCAGRFAYWGQGTLVTVSAAKTTAPSVYPLAPVCGDTTGSSVTLGCLVKGYFPEPVTLTWNSGSLSSGVHTFPAVLQSDLYTLSSSVTVTSSTWPSQSITCNVAHPASSTKVDKKIEPRGPTIKPCPPCKCPAPNLLGGPSVFIFPPKIKDVLMISLSPIVTCVVVDVSEDDPDVQISWFVNNVEVHTAQTQTHREDYNSTLRVVSALPIQHQDWMSGKEFKCKVNNKDLPAPIERTISKPKGSVRAPQVYVLPPPEEEMTKKQVTLTCMVTDFMPEDIYVEWTNNGKTELNYKNTEPVLDSDGSYFMYSKLRVEKKNWVERNSYSCSVVHEGLHNHHTTKSFSRTPGK light: MDMRVPAQLLGLLLLWLSGARCDVLMTQTPLSLPVSLGDQASISCRSSQSIVHSNGNTYLEWYLQKPGQSPKLLIYKVSNRFSGVPDRFSGSGSGTDFTLKINRVEAEDLGVYYCFQGSHVPWTFGGGTKLEIKADAAPTVSIFPPSSEQLTSGGASVVCFLNNFYPKDINVKWKIDGSERQNGVLNSWTDQDSKDSTYSMSSTLTLTKDEYERHNSYTCEATHKTSTSPIVKSFNRNEC |  |  | 20.17 |
